According to doi:10.1101/2021.07.12.452090 (bioRxiv, 2021):

B1: aCTLA-4.24 (antibody, V domains shown)
VH: QVQLVESGGGVVQPGRSLRLSCAASGFTFSSHGMHWVRQAPGKGLEWVAVIWYDGSNKHYADSVKGRFTISRDNSKNTLYLQMNSLRAEDTAVYYCARGDILTGYYGYWGQGTLVTVSS
VL: not shown
B2: aCTLA-4.1 (antibody, V domains shown)
VH: QVQLVESGGGVVQPGRSLRLSCAASGFTFSRYGMHWVRQAPGKGLEWVAVIWYDGRNKYYADSVKGRFTISRDNSKNTLYLQMNSLRAEDTALYSCARAGELGPFDYWGQGTLVTVSS
VL: EIVLTQSPGTLSLSPGERATLSCRASQSVSYLAWYQQKPGQAPRLLIYGASSRATGIPDRFSGSGSGTDFTLTISRLEPEDFAVYYCQQYGSSPWTFGQGTKVEIK
B3: aCTLA-4.4 (antibody, V domains shown)
VH: QVQLVESGGGVVQPGRSLRLSCAASGFTFSNYGMNWVRQAPGKGLEWVAVIWYDGRNKHYADSVKGRFTISRDNSKNTLYLQMNSLRAEDTAVYYCARGGDWGPYFDYWGQGTLVTVSS
VL: not shown
B4: aCTLA-4.26 (antibody, V domains shown)
VH: QVQLVESGGGVVQPGRSLRLSCAASGFTFSSYGMHWVRQAPGKGLEWVAVIWYDGSYKYYADSVKGRFTISRDDSKNTLYLQMSSLRAEDTAVYYCARAPHYAILTGYYEDYWGQGTLVTVSS
VL: not shown
B5: aCTLA-4.9 (antibody, V domains shown)
VH: QVQLVESGGGVVQPGRSLRLSCAASGFTFSSFGMHWVRQAPGKGLEWVAVIWYDGRNKYYVDSVKGRFTISRDNSNNTLYLQMNSLRAEDTAVYYCARGEFFGEFFDYWGQGTLVTVSS
VL: EIVLTQSPGTLSLSPGEGATLSCRASQSFSSNYLAWYQQKPGQAPRLLIYGASSRATGIPDRFSGSGSGTDFTLTISRLEPEDFAVYYCQQYGTSPFTFGPGTKVDIK

target: His-tagged human CTLA-4 antigen (Homo sapiens, UniProt P16410)
Sequence (P16410 36-161): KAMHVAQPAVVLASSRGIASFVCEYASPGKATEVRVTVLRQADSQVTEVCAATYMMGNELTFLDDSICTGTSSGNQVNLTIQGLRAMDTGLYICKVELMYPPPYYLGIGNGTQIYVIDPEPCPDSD

Row | Kd | Binder
1 | 6.8 nM | B1
2 | 4.6 nM | B2
3 | 5.1 nM | B3
4 | 5.7 nM | B4
5 | 0.77 nM | B5
